# Results from the supplement of paper PMC10065799, “High-throughput profiling of sequence recognition by tyrosine kinases and SH2 domains using bacterial peptide display” (eLife, 2023).
# Biological target: FGFR3 (UniProt P22607)
# Assay: phosphorylation enrichment, bacterial display (enrichment ratio); higher = better substrate or ligand; peptides without Tyr show the background
# 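Also: 11-residue human phosphosite peptides and single-mutation variants displayed on the E. coli surface, counted by deep sequencing, each peptide's frequency after selection divided by its frequency in the unselected input library; frequency after pTyr selection over input frequency; kinase dosed for 20-30% of maximal phosphorylation in three min.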
# Sequence of FGFR3 (P22607 whole entry, looked up): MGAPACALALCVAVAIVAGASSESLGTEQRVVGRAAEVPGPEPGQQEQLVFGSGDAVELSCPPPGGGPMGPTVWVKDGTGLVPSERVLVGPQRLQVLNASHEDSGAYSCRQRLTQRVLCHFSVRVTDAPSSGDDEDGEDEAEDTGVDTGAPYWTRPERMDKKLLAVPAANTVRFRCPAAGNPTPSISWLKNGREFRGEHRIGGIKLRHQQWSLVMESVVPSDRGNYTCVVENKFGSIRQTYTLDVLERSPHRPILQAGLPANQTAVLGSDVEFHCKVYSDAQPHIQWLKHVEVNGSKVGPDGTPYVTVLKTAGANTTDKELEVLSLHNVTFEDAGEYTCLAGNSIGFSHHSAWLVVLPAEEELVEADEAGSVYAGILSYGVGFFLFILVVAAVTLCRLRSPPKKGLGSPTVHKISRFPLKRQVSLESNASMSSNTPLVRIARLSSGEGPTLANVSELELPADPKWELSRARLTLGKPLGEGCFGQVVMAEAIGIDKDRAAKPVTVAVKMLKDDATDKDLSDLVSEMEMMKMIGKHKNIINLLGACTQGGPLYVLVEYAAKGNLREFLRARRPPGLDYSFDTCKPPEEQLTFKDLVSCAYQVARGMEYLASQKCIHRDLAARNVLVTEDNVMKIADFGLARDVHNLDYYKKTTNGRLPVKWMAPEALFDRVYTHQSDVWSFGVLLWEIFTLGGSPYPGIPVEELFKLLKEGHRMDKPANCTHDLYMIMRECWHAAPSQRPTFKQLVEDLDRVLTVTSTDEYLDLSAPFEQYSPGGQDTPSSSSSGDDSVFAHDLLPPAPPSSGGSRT
row,Sequence,phosphorylation enrichment
1,IRNRDYDDIDD [TTYH2_Y424_T419I],0.676
2,PSDLLYILDIQ [ITGA2B_Y845],1.91
3,MDFRSYPREFG [RBM10_Y44_YF],0.511
4,LARDIYKNDFF [ROS1_Y2110_YF],0.592
5,RAADFYSQQMA [GBP6_Y334_YF],0.671
6,AYRRGYFDEEM [PLEC_Y2971],0.5
7,SAPDSYIGIGN [SLC38A4_Y27],0.556
8,LKEIHYPPYTD [ALDH3B2_Y362],0.826
9,IRKTEYPFSSE [ATP2C1_Y452_A450T],0.449
10,EKLQKYYRKNP [EHHADH_Y682_Q685K],0.598
11,YKIYRYTLNDN [FN1_Y1975_L1974R],0.617
12,CEETFYTMKMN [MASP2_Y401_V405M],1.11
13,VYLGAYDCFLP [SLC22A5_Y486_R488C],1.09
14,PTTMTYFPHFD [HBA1_Y43_K41M],2.32
15,KRFRIYHLATS [BRCA2_Y3009_YF],0.481
16,PPSGEYFGHCG [TRIP6_Y275_Q278H],1.18
17,RLLRGYRQDAY [HLA-A_Y137_F133L],0.519

row,Sequence,phosphorylation enrichment
1,STKPQYQPGEN [SRC_Y530_E527K],0.412
2,RRIHSYRGHVW [VHL_Y112_L116V],0.965
3,IDQDKYAVHFI [FLNA_Y2388_R2391H],0.61
4,TLERHYKELQA [SPTBN2_Y834_E835K],0.509
5,KRGIDYILWHM [FRMD1_Y225_R228W],0.984
6,KIVQDYLEKFF [MMP8_Y36_T32I_YF],0.808
7,TKDTIYKQPMF [GBA_Y451_F450I],0.57
8,IKRIAYEFVEM [ADA_Y84],0.58
9,EKAEVYGSENE [RIOK2_Y348],0.625
10,QEVLEYFMKQM [PIK3CA_Y1038_A1035V],1.68
11,VVEVTYDDVPI [FLNB_Y1308],0.947
12,ANVKWYRNGRE,0.485
13,HEEDNYIELIP [NWD2_Y566],5.2
14,HGQVNYEEFVQ [CALM2_Y139_D134H],1.02
15,KEDPEYKKKFR [FAM161A_Y278_E273K],0.6
16,GSERDYTFEEL [EIF2S2_Y174_YF],0.749

# System: Fer (mouse)
# Assay: as above
row,Sequence,phosphorylation enrichment
1,IRNRDYDDIDD [TTYH2_Y424_T419I],0.494
2,PSDLLYILDIQ [ITGA2B_Y845],1.32
3,MDFRSYPREFG [RBM10_Y44_YF],0.366
4,LARDIYKNDFF [ROS1_Y2110_YF],1.14
5,RAADFYSQQMA [GBP6_Y334_YF],0.538
6,AYRRGYFDEEM [PLEC_Y2971],0.389
7,SAPDSYIGIGN [SLC38A4_Y27],0.404
8,LKEIHYPPYTD [ALDH3B2_Y362],0.584
9,IRKTEYPFSSE [ATP2C1_Y452_A450T],0.339
10,EKLQKYYRKNP [EHHADH_Y682_Q685K],0.417
11,YKIYRYTLNDN [FN1_Y1975_L1974R],0.406
12,CEETFYTMKMN [MASP2_Y401_V405M],0.935
13,VYLGAYDCFLP [SLC22A5_Y486_R488C],7.23
14,PTTMTYFPHFD [HBA1_Y43_K41M],0.521
15,KRFRIYHLATS [BRCA2_Y3009_YF],0.422
16,PPSGEYFGHCG [TRIP6_Y275_Q278H],0.668
17,RLLRGYRQDAY [HLA-A_Y137_F133L],0.653

row,Sequence,phosphorylation enrichment
1,STKPQYQPGEN [SRC_Y530_E527K],0.311
2,RRIHSYRGHVW [VHL_Y112_L116V],0.559
3,IDQDKYAVHFI [FLNA_Y2388_R2391H],0.625
4,TLERHYKELQA [SPTBN2_Y834_E835K],0.415
5,KRGIDYILWHM [FRMD1_Y225_R228W],0.591
6,KIVQDYLEKFF [MMP8_Y36_T32I_YF],0.65
7,TKDTIYKQPMF [GBA_Y451_F450I],0.391
8,IKRIAYEFVEM [ADA_Y84],2.96
9,EKAEVYGSENE [RIOK2_Y348],0.457
10,QEVLEYFMKQM [PIK3CA_Y1038_A1035V],0.719
11,VVEVTYDDVPI [FLNB_Y1308],5.94
12,ANVKWYRNGRE,0.457
13,HEEDNYIELIP [NWD2_Y566],1.27
14,HGQVNYEEFVQ [CALM2_Y139_D134H],1.26
15,KEDPEYKKKFR [FAM161A_Y278_E273K],0.455
16,GSERDYTFEEL [EIF2S2_Y174_YF],0.499

# Biological target: Fes (UniProt P07332)
# Assay: as above
# Sequence of Fes (P07332 whole entry, looked up): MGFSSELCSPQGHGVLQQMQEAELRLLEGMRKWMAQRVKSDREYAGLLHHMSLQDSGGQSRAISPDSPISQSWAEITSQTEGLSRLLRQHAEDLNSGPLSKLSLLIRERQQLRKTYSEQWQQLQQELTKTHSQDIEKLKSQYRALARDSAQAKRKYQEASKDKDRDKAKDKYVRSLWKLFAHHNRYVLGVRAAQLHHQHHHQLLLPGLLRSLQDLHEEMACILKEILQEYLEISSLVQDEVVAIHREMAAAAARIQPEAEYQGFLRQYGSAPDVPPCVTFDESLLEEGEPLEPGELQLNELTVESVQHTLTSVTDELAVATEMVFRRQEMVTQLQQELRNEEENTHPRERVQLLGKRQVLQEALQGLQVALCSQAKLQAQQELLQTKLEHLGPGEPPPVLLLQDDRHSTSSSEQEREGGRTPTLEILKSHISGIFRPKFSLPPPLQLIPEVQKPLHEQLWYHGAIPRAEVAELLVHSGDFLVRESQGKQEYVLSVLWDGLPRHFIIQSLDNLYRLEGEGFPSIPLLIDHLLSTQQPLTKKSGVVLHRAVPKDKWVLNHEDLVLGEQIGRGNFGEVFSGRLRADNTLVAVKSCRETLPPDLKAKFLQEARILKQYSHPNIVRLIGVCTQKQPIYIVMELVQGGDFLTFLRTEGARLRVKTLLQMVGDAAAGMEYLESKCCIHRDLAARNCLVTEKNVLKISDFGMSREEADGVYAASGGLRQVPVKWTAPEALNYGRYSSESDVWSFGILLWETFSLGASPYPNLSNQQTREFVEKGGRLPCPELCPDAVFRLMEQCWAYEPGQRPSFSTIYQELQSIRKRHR
row,Sequence,phosphorylation enrichment
1,IRNRDYDDIDD [TTYH2_Y424_T419I],0.887
2,PSDLLYILDIQ [ITGA2B_Y845],2.33
3,MDFRSYPREFG [RBM10_Y44_YF],0.858
4,LARDIYKNDFF [ROS1_Y2110_YF],2.15
5,RAADFYSQQMA [GBP6_Y334_YF],0.769
6,AYRRGYFDEEM [PLEC_Y2971],0.906
7,SAPDSYIGIGN [SLC38A4_Y27],0.742
8,LKEIHYPPYTD [ALDH3B2_Y362],1.17
9,IRKTEYPFSSE [ATP2C1_Y452_A450T],0.837
10,EKLQKYYRKNP [EHHADH_Y682_Q685K],0.753
11,YKIYRYTLNDN [FN1_Y1975_L1974R],1.04
12,CEETFYTMKMN [MASP2_Y401_V405M],1.87
13,VYLGAYDCFLP [SLC22A5_Y486_R488C],1.41
14,PTTMTYFPHFD [HBA1_Y43_K41M],1.01
15,KRFRIYHLATS [BRCA2_Y3009_YF],1.57
16,PPSGEYFGHCG [TRIP6_Y275_Q278H],1.38
17,RLLRGYRQDAY [HLA-A_Y137_F133L],0.777

row,Sequence,phosphorylation enrichment
1,STKPQYQPGEN [SRC_Y530_E527K],0.579
2,RRIHSYRGHVW [VHL_Y112_L116V],0.99
3,IDQDKYAVHFI [FLNA_Y2388_R2391H],0.945
4,TLERHYKELQA [SPTBN2_Y834_E835K],0.787
5,KRGIDYILWHM [FRMD1_Y225_R228W],1.15
6,KIVQDYLEKFF [MMP8_Y36_T32I_YF],1.38
7,TKDTIYKQPMF [GBA_Y451_F450I],0.821
8,IKRIAYEFVEM [ADA_Y84],0.837
9,EKAEVYGSENE [RIOK2_Y348],1
10,QEVLEYFMKQM [PIK3CA_Y1038_A1035V],1.94
11,VVEVTYDDVPI [FLNB_Y1308],1.56
12,ANVKWYRNGRE,0.738
13,HEEDNYIELIP [NWD2_Y566],2.29
14,HGQVNYEEFVQ [CALM2_Y139_D134H],1.92
15,KEDPEYKKKFR [FAM161A_Y278_E273K],1.07
16,GSERDYTFEEL [EIF2S2_Y174_YF],1.27

# Biological target: Fyn (UniProt P06241)
# Assay: as above
# Sequence of Fyn (P06241 whole entry, looked up): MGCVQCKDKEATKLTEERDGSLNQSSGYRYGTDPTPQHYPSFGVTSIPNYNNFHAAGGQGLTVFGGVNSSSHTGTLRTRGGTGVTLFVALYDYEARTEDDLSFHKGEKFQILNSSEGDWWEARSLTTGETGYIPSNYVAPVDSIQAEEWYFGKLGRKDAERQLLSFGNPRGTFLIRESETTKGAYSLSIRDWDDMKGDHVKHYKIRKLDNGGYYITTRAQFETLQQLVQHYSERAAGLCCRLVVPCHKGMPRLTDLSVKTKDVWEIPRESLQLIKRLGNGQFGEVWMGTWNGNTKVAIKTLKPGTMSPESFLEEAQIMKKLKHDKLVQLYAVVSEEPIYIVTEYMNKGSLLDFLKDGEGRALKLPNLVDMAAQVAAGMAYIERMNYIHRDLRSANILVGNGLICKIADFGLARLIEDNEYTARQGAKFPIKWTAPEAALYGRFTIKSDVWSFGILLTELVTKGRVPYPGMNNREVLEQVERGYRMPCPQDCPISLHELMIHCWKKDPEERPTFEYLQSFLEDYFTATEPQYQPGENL
row,Sequence,phosphorylation enrichment
1,IRNRDYDDIDD [TTYH2_Y424_T419I],0.594
2,PSDLLYILDIQ [ITGA2B_Y845],2.82
3,MDFRSYPREFG [RBM10_Y44_YF],0.366
4,LARDIYKNDFF [ROS1_Y2110_YF],1.47
5,RAADFYSQQMA [GBP6_Y334_YF],0.427
6,AYRRGYFDEEM [PLEC_Y2971],0.442
7,SAPDSYIGIGN [SLC38A4_Y27],0.511
8,LKEIHYPPYTD [ALDH3B2_Y362],0.718
9,IRKTEYPFSSE [ATP2C1_Y452_A450T],0.401
10,EKLQKYYRKNP [EHHADH_Y682_Q685K],0.388
11,YKIYRYTLNDN [FN1_Y1975_L1974R],0.368
12,CEETFYTMKMN [MASP2_Y401_V405M],1.59
13,VYLGAYDCFLP [SLC22A5_Y486_R488C],7.34
14,PTTMTYFPHFD [HBA1_Y43_K41M],0.554
15,KRFRIYHLATS [BRCA2_Y3009_YF],0.434
16,PPSGEYFGHCG [TRIP6_Y275_Q278H],0.698
17,RLLRGYRQDAY [HLA-A_Y137_F133L],0.769

row,Sequence,phosphorylation enrichment
1,STKPQYQPGEN [SRC_Y530_E527K],0.363
2,RRIHSYRGHVW [VHL_Y112_L116V],0.861
3,IDQDKYAVHFI [FLNA_Y2388_R2391H],0.396
4,TLERHYKELQA [SPTBN2_Y834_E835K],0.446
5,KRGIDYILWHM [FRMD1_Y225_R228W],0.5
6,KIVQDYLEKFF [MMP8_Y36_T32I_YF],0.614
7,TKDTIYKQPMF [GBA_Y451_F450I],0.502
8,IKRIAYEFVEM [ADA_Y84],0.438
9,EKAEVYGSENE [RIOK2_Y348],0.566
10,QEVLEYFMKQM [PIK3CA_Y1038_A1035V],0.999
11,VVEVTYDDVPI [FLNB_Y1308],1.76
12,ANVKWYRNGRE,0.43
13,HEEDNYIELIP [NWD2_Y566],0.905
14,HGQVNYEEFVQ [CALM2_Y139_D134H],1.28
15,KEDPEYKKKFR [FAM161A_Y278_E273K],0.34
16,GSERDYTFEEL [EIF2S2_Y174_YF],0.453
